Data as given in IntAct's records for PubMed 31515488.

B1: Fructose-1,6-bisphosphatase 1 (Homo sapiens), P09467 (parent)
chain: MADQAPFDTDVNTLTRFVMEEGRKARGTGELTQLLNSLCTAVKAISSAVRKAGIAHLYGIAGSTNVTGDQVKKLDVLSNDLVMNMLKSSFATCVLVSEEDKHAIIVEPEKRGKYVVCFDPLDGSSNIDCLVSVGTIFGIYRKKSTDEPSEKDALQPGRNLVAAGYALYGSATMLVLAMDCGVNCFMLDPAIGEFILVDKDVKIKKKGKIYSLNEGYARDFDPAVTEYIQRKKFPPDNSAPYGARYVGSMVADVHRTLVYGGIFLYPANKKSPNGKLRLLYECNPMAYVMEKAGGMATTGKEAVLDVIPTDIHQRAPVILGSPDDVLEFLKVYEKHSAQ
partner: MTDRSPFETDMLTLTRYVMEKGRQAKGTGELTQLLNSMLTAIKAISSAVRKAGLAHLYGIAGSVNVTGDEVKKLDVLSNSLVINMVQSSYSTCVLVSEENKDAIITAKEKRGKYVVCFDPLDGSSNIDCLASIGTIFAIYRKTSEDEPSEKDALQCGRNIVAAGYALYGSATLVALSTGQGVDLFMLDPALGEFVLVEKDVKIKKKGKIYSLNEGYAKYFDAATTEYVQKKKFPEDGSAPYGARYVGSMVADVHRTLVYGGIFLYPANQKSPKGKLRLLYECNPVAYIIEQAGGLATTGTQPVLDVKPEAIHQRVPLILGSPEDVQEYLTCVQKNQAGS
B2: Cyclin-dependent kinase 4 inhibitor C (Homo sapiens), P42773 (parent)
chain: MAEPWGNELASAAARGDLEQLTSLLQNNVNVNAQNGFGRTALQVMKLGNPEIARRLLLRGANPDLKDRTGFAVIHDAARAGFLDTLQTLLEFQADVNIEDNEGNLPLHLAAKEGHLRVVEFLVKHTASNVGHRNHKGDTACDLARLYGRNEVVSLMQANGAGGATNLQ
partner: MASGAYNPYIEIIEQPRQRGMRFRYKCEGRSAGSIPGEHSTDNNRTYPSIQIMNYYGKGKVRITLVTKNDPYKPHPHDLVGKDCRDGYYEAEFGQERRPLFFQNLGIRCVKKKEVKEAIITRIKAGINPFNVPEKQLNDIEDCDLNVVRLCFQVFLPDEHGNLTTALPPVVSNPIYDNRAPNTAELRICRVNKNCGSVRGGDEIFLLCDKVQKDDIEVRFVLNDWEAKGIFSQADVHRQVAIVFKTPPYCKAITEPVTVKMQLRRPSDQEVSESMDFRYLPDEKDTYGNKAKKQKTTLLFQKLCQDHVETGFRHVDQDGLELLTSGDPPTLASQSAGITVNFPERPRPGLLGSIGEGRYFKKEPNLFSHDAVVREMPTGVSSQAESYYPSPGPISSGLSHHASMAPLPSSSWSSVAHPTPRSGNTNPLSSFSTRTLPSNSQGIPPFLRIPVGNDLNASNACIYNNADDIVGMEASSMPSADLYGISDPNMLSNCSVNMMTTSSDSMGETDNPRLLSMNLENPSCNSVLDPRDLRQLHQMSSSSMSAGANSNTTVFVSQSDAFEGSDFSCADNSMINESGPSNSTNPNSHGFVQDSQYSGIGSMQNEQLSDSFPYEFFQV
B3: Notch homolog 2 N-terminal-like protein A (Homo sapiens), Q7Z3S9 (parent)
chain: MCVTYHNGTGYCKCPEGFLGEYCQHRDPCEKNRCQNGGTCVAQAMLGKATCRCASGFTGEDCQYSTSHPCFVSRPCLNGGTCHMLSRDTYECTCQVGFTGKECQWTDACLSHPCANGSTCTTVANQFSCKCLTGFTGQKCETDVNECDIPGHCQHGGTCLNLPGSYQCQCLQGFTGQYCDSLYVPCAPSPCVNGGTCRQTGDFTFECNCLPETVRRGTELWERDREVWNGKEHDEN
partner: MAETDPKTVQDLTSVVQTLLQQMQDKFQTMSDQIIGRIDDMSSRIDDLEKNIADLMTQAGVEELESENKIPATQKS
B4: DCC-interacting protein 13-beta (Homo sapiens), Q8NEU8 (parent)
chain: MPAVDKLLLEEALQDSPQTRSLLSVFEEDAGTLTDYTNQLLQAMQRVYGAQNEMCLATQQLSKQLLAYEKQNFALGKGDEEVISTLHYFSKVVDELNLLHTELAKQLADTMVLPIIQFREKDLTEVSTLKDLFGLASNEHDLSMAKYSRLPKKKENEKVKTEVGKEVAAARRKQHLSSLQYYCALNALQYRKQMAMMEPMIGFAHGQINFFKKGAEMFSKRMDSFLSSVADMVQSIQVELEAEAEKMRVSQQELLSVDESVYTPDSDVAAPQINRNLIQKAGYLNLRNKTGLVTTTWERLYFFTQGGNLMCQPRGAVAGGLIQDLDNCSVMAVDCEDRRYCFQITTPNGKSGIILQAESRKENEEWICAINNISRQIYLTDNPEAVAIKLNQTALQAVTPITSFGKKQESSCPSQNLKNSEMENENDKIVPKATASLPEAEELIAPGTPIQFDIVLPATEFLDQNRGSRRTNPFGETEDESFPEAEDSLLQQMFIVRFLGSMAVKTDSTTEVIYEAMRQVLAARAIHNIFRMTESHLMVTSQSLRLIDPQTQVSRANFELTSVTQFAAHQENKRLVGFVIRVPESTGEESLSTYIFESNSEGEKICYAINLGKEIIEVQKDPEALAQLMLSIPLTNDGKYVLLNDQPDDDDGNPNEHRGAESEA
B5: C-C motif chemokine 4 (Homo sapiens), P13236 (parent)
chain: MKLCVTVLSLLMLVAAFCSPALSAPMGSDPPTACCFSYTARKLPRNFVVDYYETSSLCSQPAVVFQTKRSKQVCADPSESWVQEYVYDLELN
partner: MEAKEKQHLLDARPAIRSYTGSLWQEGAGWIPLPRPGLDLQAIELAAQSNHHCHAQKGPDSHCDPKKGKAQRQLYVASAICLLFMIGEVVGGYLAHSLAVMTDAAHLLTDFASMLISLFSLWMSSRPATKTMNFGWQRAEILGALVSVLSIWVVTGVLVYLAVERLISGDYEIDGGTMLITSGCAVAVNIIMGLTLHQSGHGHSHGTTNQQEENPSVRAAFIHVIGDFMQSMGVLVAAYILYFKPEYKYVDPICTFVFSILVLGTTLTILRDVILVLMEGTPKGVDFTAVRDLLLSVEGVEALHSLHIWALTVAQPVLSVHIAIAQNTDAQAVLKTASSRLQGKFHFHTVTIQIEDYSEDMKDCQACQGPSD

Variants of: B1
Conditions: with FBP2, O00757

| Variant | effect of a mutation on the interaction |
| --- | --- |
| G260R | disrupting interaction strength |

Variants of: B2
Conditions: with rel_human REL

| Variant | effect of a mutation on the interaction |
| --- | --- |
| T69A | with no effect |
| V31L | disrupting interaction strength |

Variants of: B3
Conditions: with hsbp1_human HSBP1, O75506

| Variant | effect of a mutation on the interaction |
| --- | --- |
| R74Q | with no effect |
| A115T | with no effect |

Variants of: B4
Conditions: with cradd_human CRADD

| Variant | effect of a mutation on the interaction |
| --- | --- |
| H205R | with no effect |

Variants of: B4
Conditions: with suv92_human SUV39H2, Q9H5I1
Sequence of suv92_human SUV39H2, Q9H5I1 (Q9H5I1 whole entry): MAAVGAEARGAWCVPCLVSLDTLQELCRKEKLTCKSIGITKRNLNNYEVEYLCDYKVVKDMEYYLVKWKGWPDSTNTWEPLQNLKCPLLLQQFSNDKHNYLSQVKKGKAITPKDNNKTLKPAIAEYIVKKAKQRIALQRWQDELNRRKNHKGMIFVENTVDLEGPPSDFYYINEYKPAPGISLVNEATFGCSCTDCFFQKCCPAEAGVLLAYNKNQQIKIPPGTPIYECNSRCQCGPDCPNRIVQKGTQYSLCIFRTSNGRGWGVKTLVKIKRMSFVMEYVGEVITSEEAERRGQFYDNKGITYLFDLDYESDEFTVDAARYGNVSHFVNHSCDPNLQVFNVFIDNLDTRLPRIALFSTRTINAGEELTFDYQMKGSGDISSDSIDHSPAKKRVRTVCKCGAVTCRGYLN

| Variant | effect of a mutation on the interaction |
| --- | --- |
| H205R | with no effect |

Variants of: B4
Conditions: with rab5c_human RAB5C

| Variant | effect of a mutation on the interaction |
| --- | --- |
| K70R | with no effect |

Variants of: B5
Conditions: with znt2_human SLC30A2, Q9BRI3

| Variant | effect of a mutation on the interaction |
| --- | --- |
| A21V | disrupting interaction strength |
| C18R | with no effect |
| A16T | disrupting interaction strength |
